Results as given in US9765346B2, “Biological methods for preparing a fatty dicarboxylic acid” (Verdezyne, Inc., priority 2011, dated 2017).

Target: T1, Pox5 (Candida tropicalis, UniProt P08790)
T1 construct: made in house; host or cells: E. coli Rosetta II BL21, pET26b; crude cell lysate (10 ug per reaction)
Format: biochemical, Candida strain ATCC20336
Method: To express an enzyme, a colony from each transformation of Rosetta cells was used to start a 5 ml overnight culture of LB containing the antibiotics kanamycin (to select for pET26b) and chloramphenicol (to select for a second plasmid found in Rosetta II cells that mediates improved translation of eukaryotic proteins expressed in E. coli) grown at 37° C. The next morning, the overnight culture was used to seed 30 ml of LB containing kanamycin and chloramphenicol to an OD600 reading of 0.1. The 30 ml cultures were grown at 37° C. for 2 hours and then placed on ice for 10 minutes. To induce expression, isopropyl-beta-D-thiogalactopyranoside (IPTG) was added to the culture to a final concentration of 0.1 mM. In some cases induction was performed using Novagen Overnight Express Autoinduction System 1 (CAT#71300-3). The cells were then shaken at 15° C. overnight to express the acyl CoA oxidase.
To test the activity of the acyl CoA oxidase, cells from the overnight induction were pelleted at 1046×g at 4° C. in 50 ml conical tubes. The cell pellets were resuspended in 1 ml of 50 mM KPO4, pH 7.6, 50 μM FAD buffer and then transferred to a 2 ml centrifuge tube. A Misonix Sonicator 3000 (QSonica, Newtown, Conn.) was used to lyse the cells, which were sonicated at a power setting of 2 for 2 pulses of 20 seconds each. The lysates were placed on ice for 30 seconds in between each pulse. To obtain a supernatant, cell debris was pelleted at […] for 10 mins in a 4° C. microcentrifuge. The supernatant was transferred to a 1.5 ml centrifuge tube and Bradford assays (Thermoscientific) were performed on cell lysates according to manufacturer's specifications to determine protein concentration in preparation for the acyl-CoA oxidase assays. A Beckman Coulter DTX-800 Multimode Detector spectrophotometer was used for the assays. The spectrophotometer was set to read for 5 minutes at 500 nm, 30° C. Each reaction was 200 μl in volume and contained 10 μg of cell lysate in 50 mM KPO4, pH 7.6, […] BSA, 0.05% Triton X-100, 250 μM fatty acyl-coA substrate, 50 μM FAD, 10 U horseradish peroxidase, 25 mM p-hydroxybenzoic acid and 1 mM 4-aminoantipyrine. Fatty acyl-CoA substrates covered a range from hexanoyl CoA (six carbon chain length) to oleoyl CoA (eighteen carbon chain length).
Pox4 and Pox5 from Candida strain ATCC20336 were cloned into pET26b for expression in E. coli and assayed for acyl CoA oxidase activity in vitro. The activity profiles of the genetically modified Pox4 and Pox5 were compared to the activity profile of the wild type enzymes. To alter their substrate activity profile, site directed mutagenesis was performed on several locations in Pox4 and Pox5. Complementary primers encoding the point mutation(s) were used to amplify the coding sequences of Pox4 or Pox5 generating two to four PCR products that were then “stitched” together to regenerate the entire coding region using overlap extension PCR (FIG. 22). […] PCR was performed using oligonucleotides A and B to produce a product with overlap to a PCR product generated using oligonucleotides C and D. The A-B product was used as a primer for the C-D product, and vice versa, for overlap extension. Several mutagenic primer pairs, for example, like the B-C primer pair, were used to produce mutations at different locations that were “stitched” together, i.e. A-B, C-D, E-F, etc. to generate an intact, full length coding region. […]

[1] = wild type, expressed in E. coli

Pox5: native acyl-CoA oxidase isozyme of Candida strain ATCC20336
activity on C6 and C8 substrates (FIG. 21, wild type): low activity
activity on substrates below C10 (FIG. 21, wild type): decrease in activity
substrate specificity (native isozyme): narrow substrate specificity
activity on a C6 substrate [1]: not very active
substrates on which active [1]: C8 all the way to C18:1
